Source: patent publication US20190315839A1

Assays:
Test in all cases: binding ELISA; OD450 on mutant D2VLP divided by OD450 on original pacD2VLP x100
[1] = target: K310E mutant DENV-2 VLP (Dengue virus serotype 2, strain 16681) (UniProt P29990)
[2] = target: W101G mutant DENV-2 VLP (Dengue virus serotype 2, strain 16681) (UniProt P29990)
[3] = target: E311R mutant DENV-2 VLP (Dengue virus serotype 2, strain 16681) (UniProt P29990)

Substance: 4G2 (antibody)
- Relative binding (%) [1]: 110%
- Relative binding (%) [2]: 9%
- Relative binding (%) [3]: 99.4%
